The record followed here is paper PMC7954794 (2021).

B1: S. cerevisiae Abp1 (full length; SH3 domain 535-592 mutated) / Hua2 (parent complex)
chain 1: MALEPIDYTTHSREIDAEYLKIVRGSDPDTTWLIISPNAKKEYEPESTGSSFHDFLQLFDETKVQYGLARVSPPGSDVEKIIIIGWCPDSAPLKTRASFAANFAAVANNLFKGYHVQVTARDEDDLDENELLMKISNAAGARYSIQTSSKQQGKASTPPVKKSFTPSKSPAPVSKKEPVKTPSPAPAAKISSRVNDNNDDDDWNEPELKERDFDQAPLKPNQSSYKPIGKIDLQKVIAEEKAKEDPRLVQKPTAAGSKIDPSSDIANLKNESKLKRDSEFNSFLGTTKPPSMTESSLKNDDDKVIKGFRNEKSPAQLWAERKAKQNSGNAETKAEAPKPEVPEDEPEGEPDVKDLKSKFEGLAASEKEEEEMENKFAPPPKKSEPTIISPKPFSKPQEPVKAEEAEQPKTDYKKIGNPLPGMHIEADNEEEPEENDDDWDDDEDEAAQPPLPSRNVASGAPVQKEEPEQEEIAPSLPSRNSIPAPKQEEAPEQAPEEEIEEEAEEAAPQLPSRSSAAPPPPPRRATPEKKPKENPWATAEYDYDAAEDNELTFVENDKIINIEFVDDDWWLGELEKDGSKGLFPSNYVSLGN
chain 2: MQQTKFGKMYLDHDSVVEYSEDEIVEADRITLGYKKRLSMIENQMRHLLEDFSLDVQQIEPILADLQKYYDAFLQLLQKRNKSLQCKRSTHQPVPSPMNSQTSTNAKVNLSGKLMKFQLNSVQKFDEENILRILQNKIEFEHYFQIDKGKKQKVLLLAVYQCLNGPTRLHKVLNIEGIIHNNSIRTILGKQVSSSKWTVFLYDVKLVLLAHRQDVPNLETSKMIVRYGDLFPCALYFKDHTAY

This experiment covers variants of B1. In words: DHFR protein-fragment complementation in yeast (Abp1-DHFR F[1,2] x partner-DHFR F[3]), deep mutational scanning, second methotrexate selection vs reference; S. cerevisiae, DHFR-PCA selection in liquid with methotrexate at 30 C, two 72 h selections (the score uses the second); reference = the pre-selection culture.
On to chain 1 L571A, for which the screen value was -0.0753 DMS score: mean over two replicates of log2(f_test/f_ref + 0.5)/ln 2, minus the synonymous-codon median (not a log2 …. Take chain 1 Y541V: the screen value was -1.72 DMS score: mean over two replicates of log2(f_test/f_ref + 0.5)/ln 2, minus the synonymous-codon median (not a log2 …. In the case of chain 1 Y541C it was -1.21 DMS score: mean over two replicates of log2(f_test/f_ref + 0.5)/ln 2, minus the synonymous-codon median (not a log2 …. In the case of chain 1 Y541F it was 0.0303 DMS score: mean over two replicates of log2(f_test/f_ref + 0.5)/ln 2, minus the synonymous-codon median (not a log2 …. Next, chain 1 Y541L: -2.57 DMS score: mean over two replicates of log2(f_test/f_ref + 0.5)/ln 2, minus the synonymous-codon median (not a log2 …. For the variant chain 1 Y541D, the screen value is -1.13 DMS score: mean over two replicates of log2(f_test/f_ref + 0.5)/ln 2, minus the synonymous-codon median (not a log2 ….

Turning to chain 1 Y541S, the screen value was -1.59 DMS score: mean over two replicates of log2(f_test/f_ref + 0.5)/ln 2, minus the synonymous-codon median (not a log2 ….

Turning to chain 1 Y541K, the screen value is -2.77 DMS score: mean over two replicates of log2(f_test/f_ref + 0.5)/ln 2, minus the synonymous-codon median (not a log2 ….

For chain 1 D544K, the screen value was 1.68 DMS score: mean over two replicates of log2(f_test/f_ref + 0.5)/ln 2, minus the synonymous-codon median (not a log2 …. chain 1 D544W: the screen value was 0.0871 DMS score: mean over two replicates of log2(f_test/f_ref + 0.5)/ln 2, minus the synonymous-codon median (not a log2 …. In the case of chain 1 D544F it was 0.632 DMS score: mean over two replicates of log2(f_test/f_ref + 0.5)/ln 2, minus the synonymous-codon median (not a log2 …; in that of chain 1 D544T, 0.786 DMS score: mean over two replicates of log2(f_test/f_ref + 0.5)/ln 2, minus the synonymous-codon median (not a log2 …; in that of chain 1 D544N, -0.362 DMS score: mean over two replicates of log2(f_test/f_ref + 0.5)/ln 2, minus the synonymous-codon median (not a log2 …. In the case of chain 1 D544P it was -0.888 DMS score: mean over two replicates of log2(f_test/f_ref + 0.5)/ln 2, minus the synonymous-codon median (not a log2 …; in that of chain 1 D544Q, 0.66 DMS score: mean over two replicates of log2(f_test/f_ref + 0.5)/ln 2, minus the synonymous-codon median (not a log2 …; in that of chain 1 D544H, 0.503 DMS score: mean over two replicates of log2(f_test/f_ref + 0.5)/ln 2, minus the synonymous-codon median (not a log2 …. In the case of chain 1 D544Y it was -0.602 DMS score: mean over two replicates of log2(f_test/f_ref + 0.5)/ln 2, minus the synonymous-codon median (not a log2 ….

Consider chain 1 D544V, for which the screen value was 0.356 DMS score: mean over two replicates of log2(f_test/f_ref + 0.5)/ln 2, minus the synonymous-codon median (not a log2 ….

As for chain 1 E575L, the screen value is -0.106 DMS score: mean over two replicates of log2(f_test/f_ref + 0.5)/ln 2, minus the synonymous-codon median (not a log2 …. In the case of chain 1 E575S it was -0.146 DMS score: mean over two replicates of log2(f_test/f_ref + 0.5)/ln 2, minus the synonymous-codon median (not a log2 …; in that of chain 1 E575M, -0.236 DMS score: mean over two replicates of log2(f_test/f_ref + 0.5)/ln 2, minus the synonymous-codon median (not a log2 …; in that of chain 1 E575C, -0.21 DMS score: mean over two replicates of log2(f_test/f_ref + 0.5)/ln 2, minus the synonymous-codon median (not a log2 …. Next, chain 1 S585M: 0.746 DMS score: mean over two replicates of log2(f_test/f_ref + 0.5)/ln 2, minus the synonymous-codon median (not a log2 …; chain 1 S585C: 1.03 DMS score: mean over two replicates of log2(f_test/f_ref + 0.5)/ln 2, minus the synonymous-codon median (not a log2 …; chain 1 S585P: -2.72 DMS score: mean over two replicates of log2(f_test/f_ref + 0.5)/ln 2, minus the synonymous-codon median (not a log2 …. In the case of chain 1 S585G it was -1.85 DMS score: mean over two replicates of log2(f_test/f_ref + 0.5)/ln 2, minus the synonymous-codon median (not a log2 …. Take chain 1 S585T: the screen value was -0.67 DMS score: mean over two replicates of log2(f_test/f_ref + 0.5)/ln 2, minus the synonymous-codon median (not a log2 …. In the case of chain 1 D542K it was -0.627 DMS score: mean over two replicates of log2(f_test/f_ref + 0.5)/ln 2, minus the synonymous-codon median (not a log2 …; in that of chain 1 D542N, 0.0633 DMS score: mean over two replicates of log2(f_test/f_ref + 0.5)/ln 2, minus the synonymous-codon median (not a log2 …. chain 1 D542F: the screen value is -0.772 DMS score: mean over two replicates of log2(f_test/f_ref + 0.5)/ln 2, minus the synonymous-codon median (not a log2 …. Next, chain 1 W536V: -0.259 DMS score: mean over two replicates of log2(f_test/f_ref + 0.5)/ln 2, minus the synonymous-codon median (not a log2 …; chain 1 K580S: -0.00598 DMS score: mean over two replicates of log2(f_test/f_ref + 0.5)/ln 2, minus the synonymous-codon median (not a log2 …; chain 1 K580N: -0.698 DMS score: mean over two replicates of log2(f_test/f_ref + 0.5)/ln 2, minus the synonymous-codon median (not a log2 …. In the case of chain 1 K580E it was -0.984 DMS score: mean over two replicates of log2(f_test/f_ref + 0.5)/ln 2, minus the synonymous-codon median (not a log2 …. In the case of chain 1 K580Q it was 0.294 DMS score: mean over two replicates of log2(f_test/f_ref + 0.5)/ln 2, minus the synonymous-codon median (not a log2 …; in that of chain 1 K580F, 0.0243 DMS score: mean over two replicates of log2(f_test/f_ref + 0.5)/ln 2, minus the synonymous-codon median (not a log2 …; in that of chain 1 K576T, -0.475 DMS score: mean over two replicates of log2(f_test/f_ref + 0.5)/ln 2, minus the synonymous-codon median (not a log2 …. With chain 1 E547S, the screen value was -2.1 DMS score: mean over two replicates of log2(f_test/f_ref + 0.5)/ln 2, minus the synonymous-codon median (not a log2 ….

As for chain 1 E547K, the screen value was -2.17 DMS score: mean over two replicates of log2(f_test/f_ref + 0.5)/ln 2, minus the synonymous-codon median (not a log2 …. In the case of chain 1 E547H it was -2.24 DMS score: mean over two replicates of log2(f_test/f_ref + 0.5)/ln 2, minus the synonymous-codon median (not a log2 …; in that of chain 1 E547Q, -2.26 DMS score: mean over two replicates of log2(f_test/f_ref + 0.5)/ln 2, minus the synonymous-codon median (not a log2 …. In the case of chain 1 I560M it was 0.263 DMS score: mean over two replicates of log2(f_test/f_ref + 0.5)/ln 2, minus the synonymous-codon median (not a log2 …; in that of chain 1 I560C, 0.328 DMS score: mean over two replicates of log2(f_test/f_ref + 0.5)/ln 2, minus the synonymous-codon median (not a log2 …; in that of chain 1 N549L, 0.763 DMS score: mean over two replicates of log2(f_test/f_ref + 0.5)/ln 2, minus the synonymous-codon median (not a log2 …. In the case of chain 1 N549D it was 0.4 DMS score: mean over two replicates of log2(f_test/f_ref + 0.5)/ln 2, minus the synonymous-codon median (not a log2 …; in that of chain 1 N549C, 2.18 DMS score: mean over two replicates of log2(f_test/f_ref + 0.5)/ln 2, minus the synonymous-codon median (not a log2 …; in that of chain 1 N549Q, 1.15 DMS score: mean over two replicates of log2(f_test/f_ref + 0.5)/ln 2, minus the synonymous-codon median (not a log2 …. chain 1 N549I: the screen value was 0.356 DMS score: mean over two replicates of log2(f_test/f_ref + 0.5)/ln 2, minus the synonymous-codon median (not a log2 …. With chain 1 N549E, the screen value is 1.95 DMS score: mean over two replicates of log2(f_test/f_ref + 0.5)/ln 2, minus the synonymous-codon median (not a log2 …. In the case of chain 1 N549S it was 1.83 DMS score: mean over two replicates of log2(f_test/f_ref + 0.5)/ln 2, minus the synonymous-codon median (not a log2 …; in that of chain 1 V565H, -1.58 DMS score: mean over two replicates of log2(f_test/f_ref + 0.5)/ln 2, minus the synonymous-codon median (not a log2 …; in that of chain 1 V565N, -0.352 DMS score: mean over two replicates of log2(f_test/f_ref + 0.5)/ln 2, minus the synonymous-codon median (not a log2 …. In the case of chain 1 V565P it was -0.0718 DMS score: mean over two replicates of log2(f_test/f_ref + 0.5)/ln 2, minus the synonymous-codon median (not a log2 …. In the case of chain 1 V565A it was -0.567 DMS score: mean over two replicates of log2(f_test/f_ref + 0.5)/ln 2, minus the synonymous-codon median (not a log2 …; in that of chain 1 V565Q, -0.327 DMS score: mean over two replicates of log2(f_test/f_ref + 0.5)/ln 2, minus the synonymous-codon median (not a log2 …; in that of chain 1 S589Q, 0.838 DMS score: mean over two replicates of log2(f_test/f_ref + 0.5)/ln 2, minus the synonymous-codon median (not a log2 …. On to chain 1 S589L, for which the screen value is 0.723 DMS score: mean over two replicates of log2(f_test/f_ref + 0.5)/ln 2, minus the synonymous-codon median (not a log2 ….

As for chain 1 S589H, the screen value was 0.128 DMS score: mean over two replicates of log2(f_test/f_ref + 0.5)/ln 2, minus the synonymous-codon median (not a log2 …. For the variant chain 1 S589D, the screen value is 0.916 DMS score: mean over two replicates of log2(f_test/f_ref + 0.5)/ln 2, minus the synonymous-codon median (not a log2 …. Next, chain 1 S589I: 0.802 DMS score: mean over two replicates of log2(f_test/f_ref + 0.5)/ln 2, minus the synonymous-codon median (not a log2 ….

In the case of chain 1 S589T, the screen value is 0.254 DMS score: mean over two replicates of log2(f_test/f_ref + 0.5)/ln 2, minus the synonymous-codon median (not a log2 …. Next, chain 1 S589R: 1.04 DMS score: mean over two replicates of log2(f_test/f_ref + 0.5)/ln 2, minus the synonymous-codon median (not a log2 …; chain 1 S589N: 1.22 DMS score: mean over two replicates of log2(f_test/f_ref + 0.5)/ln 2, minus the synonymous-codon median (not a log2 ….

In the case of chain 1 S589F, the screen value was -0.753 DMS score: mean over two replicates of log2(f_test/f_ref + 0.5)/ln 2, minus the synonymous-codon median (not a log2 …. With chain 1 S589G, the screen value was 0.273 DMS score: mean over two replicates of log2(f_test/f_ref + 0.5)/ln 2, minus the synonymous-codon median (not a log2 …. Next, chain 1 N592S: 0.526 DMS score: mean over two replicates of log2(f_test/f_ref + 0.5)/ln 2, minus the synonymous-codon median (not a log2 …; chain 1 N592E: 1.16 DMS score: mean over two replicates of log2(f_test/f_ref + 0.5)/ln 2, minus the synonymous-codon median (not a log2 ….

Consider chain 1 N592G, for which the screen value was 0.394 DMS score: mean over two replicates of log2(f_test/f_ref + 0.5)/ln 2, minus the synonymous-codon median (not a log2 …. Consider chain 1 N592W, for which the screen value was -0.139 DMS score: mean over two replicates of log2(f_test/f_ref + 0.5)/ln 2, minus the synonymous-codon median (not a log2 …. Next, chain 1 L582K: -2.94 DMS score: mean over two replicates of log2(f_test/f_ref + 0.5)/ln 2, minus the synonymous-codon median (not a log2 …; chain 1 N586V: 1.04 DMS score: mean over two replicates of log2(f_test/f_ref + 0.5)/ln 2, minus the synonymous-codon median (not a log2 …; chain 1 N586Q: -1.03 DMS score: mean over two replicates of log2(f_test/f_ref + 0.5)/ln 2, minus the synonymous-codon median (not a log2 …. Next, chain 1 N586T: 1.83 DMS score: mean over two replicates of log2(f_test/f_ref + 0.5)/ln 2, minus the synonymous-codon median (not a log2 …; chain 1 N586S: 2 DMS score: mean over two replicates of log2(f_test/f_ref + 0.5)/ln 2, minus the synonymous-codon median (not a log2 …; chain 1 N586A: 1.82 DMS score: mean over two replicates of log2(f_test/f_ref + 0.5)/ln 2, minus the synonymous-codon median (not a log2 ….
